Assay results from paper PMC10675845.

Tests used:
Experiment in all cases: single-cell, single-molecule pull-down
[1] = target: GFP::CDC-42(S71A) (C. elegans) (UniProt Q05062)
[2] = target: GFP::CDC-42(S71E) (C. elegans) (UniProt Q05062)
GFP::CDC-42 (C. elegans) = GFP::CDC-42 (C. elegans) (UniProt Q05062)

## HaloTag::aPKC (from UniProt Q19266 1-597) (enzyme)
[1]
  koff: 0.057 s⁻¹
[2]
  koff: 0.099 s⁻¹
GFP::CDC-42 (C. elegans)
  koff: 0.057 s⁻¹
